The subject of one assay is KT-11 xenograft (Wilms). In words: PPTP in vivo xenograft KT-11. To be noted: KT-11 (Wilms) xenograft, 0.5 mg per mouse ip twice weekly for four weeks. The protocol:
(§1) The PPTP includes a molecularly characterized in vitro panel of cell lines (n=27) and in vivo panel of xenografts (n=61) representing most of the common types of childhood solid tumors and childhood ALL (acute lymphoblastic leukemia). LCF/HCA anti-IGF1R antibody was tested against the PPTP in vitro panel at concentrations ranging from 0.01 nM to 100 nM; and was tested against the PPTP in vivo panel at a dose of 0.5 mg per mouse administered twice weekly for four weeks via intraperitoneal injection. Three measures of antitumor activity were used: 1) response criteria modeled after the clinical setting; 2) treated-to-control (T/C) tumor volume at day 21; and 3) a time to event (4-fold increase in tumor volume) measure based on the median EFS of treated and control lines (intermediate activity required EFS (event-free survival) T/C>2, and high activity additionally required a net reduction in median tumor volume at the end of the experiment).
(§2) Stage 1 testing involved testing an agent across the entire PPTP panel of childhood cancer xenograft lines at its maximum tolerated dose (MTD) or at a dose selected based on PK/PD (pharmacokinetic/pharmacodynamic) studies using adult preclinical models.
(§3) In vivo solid tumor testing: For each xenograft line, 10 mice bearing subcutaneous (SC) tumors initiated treatment when the tumors were between 0.2-0.5 cm^3 in volume. Two perpendicular tumor diameters were measured at once weekly intervals with digital vernier calipers. Assuming tumors to be spherical, volumes were calculated from the formula (π/6)×d3, where d represented the mean diameter.
(§4) Drug: LCF/HCA was dissolved in 20mM sodium acetate pH 5 buffer containing 150 mM sodium chloride, and administered intraperitoneally twice weekly for 4 consecutive weeks at a dose of 0.5 mg per animal. […]
(§5) Median Group Response: Each individual mouse in each treatment group was assigned a response score (see Tables above) and a median score for the treatment group was calculated and then each treatment group was assigned an overall response according to the table below. […]

In assay [1] the test system is NB-1643 xenograft (Neuroblastoma). Nature of the assay: PPTP in vivo xenograft NB-1643. The following applies: NB-1643 (Neuroblastoma) xenograft, 0.5 mg per mouse ip twice weekly for four weeks. The protocol: as §1, §2, §3
(§6) Drug: LCF/HCA was dissolved in 20mM sodium acetate pH 5 buffer containing 150 mM sodium chloride, and administered intraperitoneally twice weekly for 4 consecutive weeks at a dose of 0.5 mg per animal. The antibody was provided to each testing site in coded vials for blinded testing according the PPTP's standard operating procedures.
(§7) Median Group Response: Each individual mouse in each treatment group was assigned a response score (see Tables above) and a median score for the treatment group was calculated and then each treatment group was assigned an overall response according to the table below.
(§8) Statistical Methods: Event-free survival (EFS) distributions of each treatment group were compared to the EFS distribution of the respective control group using the exact log rank test. P-values were 2-sided & were not adjusted for multiple comparisons given the exploratory nature of this study. P-values<0.05 were considered to be significant.

Assay [2] deals with Rh41 xenograft (ALV Rhabdomyosarcoma). In words: PPTP in vivo xenograft Rh41.
Text: The PPTP includes a molecularly characterized in vitro panel of cell lines (n=27) and in vivo panel of xenografts (n=61) representing most of the common types of childhood solid tumors and childhood ALL (acute lymphoblastic leukemia).
as §2, §3
The antibody was provided to each testing site in coded vials for blinded testing according the PPTP's standard operating procedures.
as §7, §8

The subject of assay [3] is KT-16 xenograft (Rhabdoid). In words: PPTP in vivo xenograft KT-16. To be noted: KT-16 (Rhabdoid) xenograft, 0.5 mg per mouse ip twice weekly for four weeks. The procedure: as §1, §2, §3, §4, §5
Another assay relates to KT-13 xenograft (Wilms). Nature of the assay: PPTP in vivo xenograft KT-13. The following applies: KT-13 (Wilms) xenograft, 0.5 mg per mouse ip twice weekly for four weeks. The procedure: as §1, §2, §3, §4, §5
The subject of assay [4] is OS-9 xenograft (Osteosarcoma). Nature of the assay: PPTP in vivo xenograft OS-9. On the set-up: key to EFS activity notation (high, intermediate, indeterminate): high (!); intermediate (#); indeterminate (^). The following applies: OS-9 (Osteosarcoma) xenograft, 0.5 mg per mouse ip twice weekly for four weeks. The protocol: as §1, §2, §3, §6, §7, §8
Assay [5] relates to ALL-16 xenograft (ALL T-cell). In words: PPTP in vivo leukemia xenograft ALL-16. To be noted: ALL-16 (ALL T-cell) xenograft; 0.5 mg per mouse ip twice weekly for four weeks. The procedure:
The PPTP includes a molecularly characterized in vitro panel of cell lines (n=27) and in vivo panel of xenografts (n=61) representing most of the common types of childhood solid tumors and childhood ALL (acute lymphoblastic leukemia). LCF/HCA anti-IGF1R antibody was tested against the PPTP in vitro panel at concentrations ranging from 0.01 nM to 100 nM; and was tested against the PPTP in vivo panel at a dose of 0.5 mg per mouse administered twice weekly for four weeks via intraperitoneal injection. […]
In vivo acute lymphoblastic leukemia testing: For each xenograft line, 8 mice were inoculated with 3-5×10^6 mononuclear cells purified from the spleens of secondary recipient mice. Engraftment was monitored weekly by flow cytometry, and treatment was initiated when the proportion of human CD45+ cells in the peripheral blood reached 1%. The proportion of human CD45+ cells in the peripheral blood was monitored weekly throughout the course of treatment. […]
as §5

Assay [6] has as its system SCC15 human squamous cell carcinoma tumor cells. Nature of the assay: SCC15 squamous cell carcinoma xenograft in SCID mice. In kind it is in vivo, mouse. The following applies: 0.1 mg/injection ip two times per week, seven times starting on day 10. The procedure:
Immune-deficient SCID mice (strain SCID) were inoculated with SCC15 human squamous cell carcinoma tumor cells in the right flank, subcutaneously, along with Matrigel (1:1 cells:gel). In these experiments, 5×10^6 cells/mouse in a 1:1 mix with regular matrigel were inoculated. The LCF/HCA anti-IGF1R antibody was inoculated intraperitoneally (ip) (0.1 mg/injection). Mice were dosed with the antibody two times per week, by intraperitoneal injection, seven times starting on day 10 with the last dose on day 31. Tumor size was measured with calipers and the data was entered into the labcat program. Mice were grouped with average size of 100 mm^3. Tumor size and body weight were measured twice weekly.

In assay [7] the test system is squamous cell carcinoma cell line SCC 15. In words: Cell-Titer Glo proliferation assay, SCC15. In kind it is cell-based, human. The following applies: 0.000256-100 nM antibody, 96 hours. The procedure: Cell proliferation was assayed using a Cell-Titer Glo assay (Promega Corp.; Madison, Wis.). A cell-titer glo assay generates a “glow” luminescent signal in the presence of ATP from viable cells, which can be detected with a plate reader luminometer or CCD imaging device.
In this assay, squamous cell carcinoma cells, SCC9, SCC25 and SCC15, were trypsinized, counted and resuspended at 25,000 cells/ml in 10% HI-FBS RPMI containing NEAA, L-Glu, MEM Vitamins and PS. […] (2500 cells) were added to each well BD Falcon 96 well black, clear bottom TC treated plate. Cells were allowed to attach and spread overnight at 37° C. Then, 10% RPMI medium was replaced with […] 2% RPMI, containing the LCF/HCA antibody at the appropriate concentration, the following day. The anti-IGF1R antibody concentrations used in each experiment were 100 nM, 20 nM, 5 nM, 0.8 nM, 0.16 nM, 0.032 nM, 0.0064 nM, 0.00128 nM, and 0.000256 nM. All treatments were prepared in 2% RPMI at 20× concentration and serial diluted. Every test point was prepared in triplicate on separate assay plates. As mentioned above, cell proliferation was measured using the CellTiter-Glo Luminescent Cell Viability Assay (Promega) at 96 hours post treatment. Luminescence was detected on a Wallac 420 Plate Reader with stacker.

The mark [8] stands for this setting: 0.5 mg per mouse ip twice weekly for four weeks.

Where only a bound is given, the exact number is not on record here.

The text below walks through data of patent US20110262525A1, “METHODS OF TREATMENT” (SCHERING CORPORATION, priority 2006, published 2011).

B1: LCF/HCA: fully human anti-IGF1R antibody comprising the mature 19D12/15H12 light chain F (LCF) and mature heavy chain A (HCA) (antibody, V domains shown)
VH: EVQLVQSGGGLVHPGGSLRLSCAASGFTFSSFAMHWVRQAPGKGLEWISVIDTRGATYYADSVKGRFTISRDNAKNSLYLQMNSLRAEDMAVYYCARLGNFYYGMDVWGQGTTVTVSS
VL: EIVLTQVPDFQSVTPKEKVTITCRASQSIGSSLHWYQQKPDQSPKLLIKYASQSLSGVPSRFSGSGSGTDFTLTINSLEAEDAAAYYCHQSSRLPHTFGGGTKVEIKRT
On to B1, for which the “EFS T/C” value in the assay on KT-11 xenograft (Wilms) is 1; in assay [1], 1.8; in [2] (setting [8]), 1.1; in assay [3] it was 1.2; in the assay on KT-13 xenograft (Wilms) it was 1.1; in assay [4], > 1.2. Moreover, in assay [5], the “EFS T/C” value came to 1. In addition, the “Median Final RTV” value is >4 in the assay with KT-11 xenograft (Wilms); >4 in [1]; >4 in assay [2] (setting [8]); >4 in [3]; >4 in the assay on KT-13 xenograft (Wilms); 0.4^ in assay [4]. For the same molecule, in assay [5], the “Median Final RTV” value is reported as >25. Moreover, the “Tumor Volume T/C” value in the assay on KT-11 xenograft (Wilms) (day 21) was determined as 0.99; in [1] (day 21), 0.53; in assay [2] (day 21, 0.5 mg per mouse ip twice weekly for four weeks), 0.65; in assay [3] (day 21) it was 0.5; with KT-13 xenograft (Wilms) (day 21), 0.84; in assay [4] (day 21), 0.31. Besides, the “Overall Group Response” value in assay [1] is “PD2 (1 < MS ≦ 3)”. Moreover, the “EFS activity notation (high, intermediate, indeterminate)” value in [4] is “^”. The tumor growth result in assay [6] is listed as “less than that observed in mice only receiving a control injection without the antibody”. Further, in assay [7], the “proliferation of squamous cell carcinoma cell line” value was “inhibited”.
